The record followed here is US12427210B2, “Compounds comprising a fibroblast activation protein ligand and use thereof” (priority 2019, dated 2025).

What all share (conditions): remark: other sources report otherwise
In one assay the target is T1, A2A (h) (human), P29274.
T1 chain: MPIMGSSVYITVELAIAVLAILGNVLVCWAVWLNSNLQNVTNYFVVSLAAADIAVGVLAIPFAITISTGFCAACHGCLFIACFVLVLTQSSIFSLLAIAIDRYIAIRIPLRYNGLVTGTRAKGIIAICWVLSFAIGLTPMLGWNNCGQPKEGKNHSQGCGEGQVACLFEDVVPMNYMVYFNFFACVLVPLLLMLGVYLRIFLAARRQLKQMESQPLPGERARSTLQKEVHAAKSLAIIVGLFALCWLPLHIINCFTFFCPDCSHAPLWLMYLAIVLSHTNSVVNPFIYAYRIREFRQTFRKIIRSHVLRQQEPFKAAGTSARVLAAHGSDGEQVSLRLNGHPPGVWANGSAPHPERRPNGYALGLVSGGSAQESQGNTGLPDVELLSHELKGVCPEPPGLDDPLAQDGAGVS
The assay is described as follows: radioligand displacement, compound at 10 µM.

The target in another assay is CB2 (h) (human), P34972. The assay is described as follows: radioligand displacement, compound at 10 µM.
Chain of CB2 (h) (human), P34972 (P34972 whole entry): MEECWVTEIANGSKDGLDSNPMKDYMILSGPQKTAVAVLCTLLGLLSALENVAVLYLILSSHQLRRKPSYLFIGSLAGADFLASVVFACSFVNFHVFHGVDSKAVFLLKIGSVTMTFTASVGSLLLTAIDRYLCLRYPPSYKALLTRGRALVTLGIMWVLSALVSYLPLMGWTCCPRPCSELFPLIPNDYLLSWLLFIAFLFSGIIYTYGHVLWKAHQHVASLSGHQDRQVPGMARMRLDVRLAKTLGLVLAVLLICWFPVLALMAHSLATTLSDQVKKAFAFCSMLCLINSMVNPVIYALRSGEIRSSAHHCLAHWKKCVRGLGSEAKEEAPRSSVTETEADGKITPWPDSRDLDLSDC
Assay [1] deals with T2, delta (DOP) (h) (human), P41143.
T2 chain: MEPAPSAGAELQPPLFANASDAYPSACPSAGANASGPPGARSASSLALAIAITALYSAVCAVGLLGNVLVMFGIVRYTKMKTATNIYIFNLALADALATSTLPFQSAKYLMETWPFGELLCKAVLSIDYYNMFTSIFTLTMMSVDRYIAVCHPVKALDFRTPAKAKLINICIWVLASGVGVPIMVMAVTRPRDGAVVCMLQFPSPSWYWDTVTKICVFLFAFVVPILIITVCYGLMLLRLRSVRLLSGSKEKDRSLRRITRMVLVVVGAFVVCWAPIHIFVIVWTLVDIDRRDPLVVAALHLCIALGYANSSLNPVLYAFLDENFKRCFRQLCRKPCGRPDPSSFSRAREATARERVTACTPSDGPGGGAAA
The assay is described as follows: radioligand displacement, compound at 10 µM.

Assay [2] concerns the target T3, dopamine transporter (h) (human), Q01959.
T3 chain: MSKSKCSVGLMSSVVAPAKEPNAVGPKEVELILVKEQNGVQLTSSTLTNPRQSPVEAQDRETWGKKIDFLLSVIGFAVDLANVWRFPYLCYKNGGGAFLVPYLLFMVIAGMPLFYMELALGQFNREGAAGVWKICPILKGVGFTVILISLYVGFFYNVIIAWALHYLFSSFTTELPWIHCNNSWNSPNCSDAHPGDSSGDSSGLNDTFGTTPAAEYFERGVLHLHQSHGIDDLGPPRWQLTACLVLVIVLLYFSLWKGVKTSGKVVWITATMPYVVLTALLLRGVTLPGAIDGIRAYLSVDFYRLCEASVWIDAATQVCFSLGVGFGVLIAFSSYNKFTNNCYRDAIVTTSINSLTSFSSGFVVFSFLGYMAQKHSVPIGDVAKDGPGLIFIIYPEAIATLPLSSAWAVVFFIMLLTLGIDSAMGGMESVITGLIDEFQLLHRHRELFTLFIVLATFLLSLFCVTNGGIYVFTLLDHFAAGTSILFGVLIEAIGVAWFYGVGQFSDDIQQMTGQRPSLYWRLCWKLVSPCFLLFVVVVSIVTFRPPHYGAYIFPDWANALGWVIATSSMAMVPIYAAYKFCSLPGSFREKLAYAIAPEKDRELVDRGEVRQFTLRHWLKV
The assay is described as follows: radioligand displacement, compound at 10 µM.

The target in assay [3] is norepinephrine transporter (h) (human), P23975. The assay is described as follows: radioligand displacement, compound at 10 µM.
Chain of norepinephrine transporter (h) (human), P23975 (P23975 whole entry): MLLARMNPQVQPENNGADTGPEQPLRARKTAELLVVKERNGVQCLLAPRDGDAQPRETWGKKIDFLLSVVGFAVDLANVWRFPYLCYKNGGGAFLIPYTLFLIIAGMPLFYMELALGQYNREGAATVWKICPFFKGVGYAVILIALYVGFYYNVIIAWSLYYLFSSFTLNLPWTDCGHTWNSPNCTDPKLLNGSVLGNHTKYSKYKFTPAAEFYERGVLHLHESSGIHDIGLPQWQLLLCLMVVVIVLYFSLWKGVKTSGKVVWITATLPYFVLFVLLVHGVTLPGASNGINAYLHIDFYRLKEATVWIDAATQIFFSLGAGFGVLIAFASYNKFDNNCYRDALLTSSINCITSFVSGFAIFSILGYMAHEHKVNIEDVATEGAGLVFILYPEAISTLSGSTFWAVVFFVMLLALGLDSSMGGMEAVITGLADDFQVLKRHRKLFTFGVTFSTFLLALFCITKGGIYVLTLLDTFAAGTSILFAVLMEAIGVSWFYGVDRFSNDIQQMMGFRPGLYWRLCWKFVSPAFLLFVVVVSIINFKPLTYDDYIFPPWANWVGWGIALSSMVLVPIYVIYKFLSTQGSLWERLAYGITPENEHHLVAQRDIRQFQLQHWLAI
The target of assay [4] is T4, Potassium Channel hERG (human) (human), Q12809.
T4 chain: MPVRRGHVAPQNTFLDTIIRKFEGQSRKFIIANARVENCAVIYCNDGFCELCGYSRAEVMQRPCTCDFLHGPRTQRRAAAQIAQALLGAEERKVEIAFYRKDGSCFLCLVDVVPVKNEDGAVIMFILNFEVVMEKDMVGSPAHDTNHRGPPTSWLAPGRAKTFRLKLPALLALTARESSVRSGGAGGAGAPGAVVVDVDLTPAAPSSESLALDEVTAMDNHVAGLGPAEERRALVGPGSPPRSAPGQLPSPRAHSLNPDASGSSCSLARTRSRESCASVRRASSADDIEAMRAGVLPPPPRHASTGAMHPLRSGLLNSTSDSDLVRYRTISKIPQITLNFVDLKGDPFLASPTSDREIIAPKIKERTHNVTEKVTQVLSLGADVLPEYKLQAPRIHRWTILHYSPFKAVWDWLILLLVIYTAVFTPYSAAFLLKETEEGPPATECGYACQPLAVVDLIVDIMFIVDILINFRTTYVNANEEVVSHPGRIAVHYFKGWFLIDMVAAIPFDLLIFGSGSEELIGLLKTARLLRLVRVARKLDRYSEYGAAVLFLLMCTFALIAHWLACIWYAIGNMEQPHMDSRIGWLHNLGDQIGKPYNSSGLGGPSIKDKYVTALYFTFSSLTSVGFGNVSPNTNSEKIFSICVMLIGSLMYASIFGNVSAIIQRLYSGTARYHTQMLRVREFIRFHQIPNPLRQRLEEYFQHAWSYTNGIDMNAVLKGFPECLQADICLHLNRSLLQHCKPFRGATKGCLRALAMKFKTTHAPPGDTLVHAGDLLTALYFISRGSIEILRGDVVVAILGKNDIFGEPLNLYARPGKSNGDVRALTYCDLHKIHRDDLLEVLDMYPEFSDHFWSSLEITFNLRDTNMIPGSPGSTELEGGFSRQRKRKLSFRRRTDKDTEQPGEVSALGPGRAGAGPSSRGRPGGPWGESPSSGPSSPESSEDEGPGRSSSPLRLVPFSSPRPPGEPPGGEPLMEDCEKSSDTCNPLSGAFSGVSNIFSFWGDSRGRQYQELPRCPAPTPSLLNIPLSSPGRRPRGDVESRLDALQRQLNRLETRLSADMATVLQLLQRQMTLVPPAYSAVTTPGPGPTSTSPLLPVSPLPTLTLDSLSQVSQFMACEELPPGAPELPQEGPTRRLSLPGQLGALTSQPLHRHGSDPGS
The assay is described as follows: displacement of [3H] Dofetilide, compound at 10 µM.

B1: Hex-[Cys(tMeBn(DOTA-PP))-Pro-Pro-Thr-Gln-Phe-Cys]-Asp-NH2 (3BP-3407) (peptide)
peptide: CPPTQFCD
modifications: here or on the partner: N-terminal hexanoyl (Hex); Cys1 and Cys7 cyclised through tMeBn carrying DOTA-PP; C-terminal amide
As for B1, the % Inhibition of Specific Binding with A2A (h) (human), P29274 was -4%; with CB2 (h) (human), P34972, 2%; in assay [1] it was 0%; in assay [2], 12%; in assay [3] it was -8%; in assay [4], 2%.

B2: Hex-[Cys(tMeBn(DOTA-AET))-Pro-Pro-Thr-Gln-Phe-Cys]-OH (3BP-3554) (peptide)
peptide: CPPTQFC
modifications: here or on the partner: N-terminal hexanoyl (Hex); Cys1 and Cys7 cyclised through tMeBn carrying DOTA-AET; free C-terminal acid (-OH)
As for B2, the % Inhibition of Specific Binding was -16% with A2A (h) (human), P29274; -5% in the assay with CB2 (h) (human), P34972; 1% in assay [1]; 7% in assay [2]; -5% in assay [3]; 6% in assay [4].
